Assay results taken from patent US20240018502A1.

Molecular target: plasma purified human complement protein C3 (human) (UniProt P01024)
Test: cell-based or functional assay

plasma purified human complement protein C3 (human), sequence (P01024 23-667, chain 1 of 2): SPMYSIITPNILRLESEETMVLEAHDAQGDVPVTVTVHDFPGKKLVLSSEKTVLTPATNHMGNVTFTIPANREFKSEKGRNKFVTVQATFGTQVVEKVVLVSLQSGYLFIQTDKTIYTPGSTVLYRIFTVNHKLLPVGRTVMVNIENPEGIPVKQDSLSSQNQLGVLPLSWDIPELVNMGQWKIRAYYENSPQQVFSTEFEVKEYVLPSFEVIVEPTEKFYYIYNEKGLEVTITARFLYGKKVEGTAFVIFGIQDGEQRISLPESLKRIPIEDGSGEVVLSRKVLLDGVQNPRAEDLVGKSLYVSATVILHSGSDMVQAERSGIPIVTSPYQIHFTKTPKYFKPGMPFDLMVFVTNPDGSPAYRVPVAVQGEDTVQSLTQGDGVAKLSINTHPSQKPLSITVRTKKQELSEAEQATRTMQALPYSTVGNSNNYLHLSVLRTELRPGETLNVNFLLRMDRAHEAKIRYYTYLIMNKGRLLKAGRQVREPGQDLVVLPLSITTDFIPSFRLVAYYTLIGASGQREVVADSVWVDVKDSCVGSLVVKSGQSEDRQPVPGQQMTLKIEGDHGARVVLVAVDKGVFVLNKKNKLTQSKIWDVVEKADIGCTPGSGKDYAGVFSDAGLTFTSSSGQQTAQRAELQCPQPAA
plasma purified human complement protein C3 (human), sequence (P01024 672-1663, chain 2 of 2): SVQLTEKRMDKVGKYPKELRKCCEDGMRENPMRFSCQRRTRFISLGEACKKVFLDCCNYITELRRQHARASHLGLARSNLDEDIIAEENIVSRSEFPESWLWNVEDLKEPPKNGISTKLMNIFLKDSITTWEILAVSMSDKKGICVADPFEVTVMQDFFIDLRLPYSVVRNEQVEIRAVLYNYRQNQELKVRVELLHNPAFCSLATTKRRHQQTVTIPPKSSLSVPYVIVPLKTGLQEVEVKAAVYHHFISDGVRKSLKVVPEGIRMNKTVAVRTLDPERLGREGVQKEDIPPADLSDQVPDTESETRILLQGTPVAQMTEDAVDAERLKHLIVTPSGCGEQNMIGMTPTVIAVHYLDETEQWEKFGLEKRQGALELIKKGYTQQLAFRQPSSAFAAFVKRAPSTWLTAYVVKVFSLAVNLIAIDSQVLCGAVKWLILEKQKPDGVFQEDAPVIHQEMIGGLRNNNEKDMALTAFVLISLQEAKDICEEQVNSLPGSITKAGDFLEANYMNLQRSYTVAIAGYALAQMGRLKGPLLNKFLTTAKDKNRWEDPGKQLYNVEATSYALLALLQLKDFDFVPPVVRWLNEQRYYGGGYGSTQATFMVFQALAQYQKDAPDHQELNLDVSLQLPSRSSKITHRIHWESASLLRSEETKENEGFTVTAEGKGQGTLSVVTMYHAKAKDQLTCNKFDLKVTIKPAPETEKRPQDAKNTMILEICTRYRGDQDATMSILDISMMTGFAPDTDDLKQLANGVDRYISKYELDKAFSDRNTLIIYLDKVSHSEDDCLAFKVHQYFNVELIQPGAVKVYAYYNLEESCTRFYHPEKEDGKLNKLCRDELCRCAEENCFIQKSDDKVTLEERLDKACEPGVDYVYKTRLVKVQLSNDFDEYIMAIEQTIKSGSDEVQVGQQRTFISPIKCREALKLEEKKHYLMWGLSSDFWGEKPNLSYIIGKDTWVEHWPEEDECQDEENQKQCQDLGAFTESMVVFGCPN

| EC50 hC3 cleavage [nM] | EC50 of hC3 cleavage [nM] | Binder |
| --- | --- | --- |
| 112 |  | MTSP-1 protease domain I41E/F99L/C122S/G151N/Q192S (enzyme) VVGGTDADEGEWPWQVSLHALGQGHECGASLISPNWLVSAAHCYIDDRGFRYSDPTQWTAFLGLHDQSQRSAPGVQERRLKRIISHPFFNDFTLDYDIALLELEKPAEYSSMVRPISLPDASHVFPAGKAIWVTGWGHTQYGGTNALILQKGEIRVINQTTCENLLPQQITPRMMCVGFLSGGVDSCSGDSGGPLSSVEADGRIFQAGVVSWGDGCAQRNKPGVYTRLPLFRDWIKENTGV |
| 414 |  | MTSP-1 protease domain I41D/Y59F/F99L/C122S/G151N/Q192T/V213A (enzyme) VVGGTDADEGEWPWQVSLHALGQGHDCGASLISPNWLVSAAHCFIDDRGFRYSDPTQWTAFLGLHDQSQRSAPGVQERRLKRIISHPFFNDFTLDYDIALLELEKPAEYSSMVRPISLPDASHVFPAGKAIWVTGWGHTQYGGTNALILQKGEIRVINQTTCENLLPQQITPRMMCVGFLSGGVDSCTGDSGGPLSSVEADGRIFQAGVASWGDGCAQRNKPGVYTRLPLFRDWIKENTGV |
| 33.9 |  | MTSP-1 protease domain I41E/F99L/C122S/Q175G/Q192T (enzyme) VVGGTDADEGEWPWQVSLHALGQGHECGASLISPNWLVSAAHCYIDDRGFRYSDPTQWTAFLGLHDQSQRSAPGVQERRLKRIISHPFFNDFTLDYDIALLELEKPAEYSSMVRPISLPDASHVFPAGKAIWVTGWGHTQYGGTGALILQKGEIRVINQTTCENLLPQGITPRMMCVGFLSGGVDSCTGDSGGPLSSVEADGRIFQAGVVSWGDGCAQRNKPGVYTRLPLFRDWIKENTGV |
| 20 |  | MTSP-1 protease domain I41E/F99L/C122S/G151N/Q175G (enzyme) VVGGTDADEGEWPWQVSLHALGQGHECGASLISPNWLVSAAHCYIDDRGFRYSDPTQWTAFLGLHDQSQRSAPGVQERRLKRIISHPFFNDFTLDYDIALLELEKPAEYSSMVRPISLPDASHVFPAGKAIWVTGWGHTQYGGTNALILQKGEIRVINQTTCENLLPQGITPRMMCVGFLSGGVDSCQGDSGGPLSSVEADGRIFQAGVVSWGDGCAQRNKPGVYTRLPLFRDWIKENTGV |
| 134 |  | MTSP-1 protease domain I41S/C122S/G151N/Q175R/Q192R (enzyme) VVGGTDADEGEWPWQVSLHALGQGHSCGASLISPNWLVSAAHCYIDDRGFRYSDPTQWTAFLGLHDQSQRSAPGVQERRLKRIISHPFFNDFTFDYDIALLELEKPAEYSSMVRPISLPDASHVFPAGKAIWVTGWGHTQYGGTNALILQKGEIRVINQTTCENLLPQRITPRMMCVGFLSGGVDSCRGDSGGPLSSVEADGRIFQAGVVSWGDGCAQRNKPGVYTRLPLFRDWIKENTGV |
| 13.9 |  | MTSP-1 protease domain I41S/F99L/C122S/G151N/Q175P (enzyme) VVGGTDADEGEWPWQVSLHALGQGHSCGASLISPNWLVSAAHCYIDDRGFRYSDPTQWTAFLGLHDQSQRSAPGVQERRLKRIISHPFFNDFTLDYDIALLELEKPAEYSSMVRPISLPDASHVFPAGKAIWVTGWGHTQYGGTNALILQKGEIRVINQTTCENLLPQPITPRMMCVGFLSGGVDSCQGDSGGPLSSVEADGRIFQAGVVSWGDGCAQRNKPGVYTRLPLFRDWIKENTGV |
| 225 |  | MTSP-1 protease domain F99L/C122S/G151N/Q192T (enzyme) VVGGTDADEGEWPWQVSLHALGQGHICGASLISPNWLVSAAHCYIDDRGFRYSDPTQWTAFLGLHDQSQRSAPGVQERRLKRIISHPFFNDFTLDYDIALLELEKPAEYSSMVRPISLPDASHVFPAGKAIWVTGWGHTQYGGTNALILQKGEIRVINQTTCENLLPQQITPRMMCVGFLSGGVDSCTGDSGGPLSSVEADGRIFQAGVVSWGDGCAQRNKPGVYTRLPLFRDWIKENTGV |
| 139 |  | MTSP-1 protease domain I41S/F99M/C122S/G151N/Q175P/Q192S (enzyme) VVGGTDADEGEWPWQVSLHALGQGHSCGASLISPNWLVSAAHCYIDDRGFRYSDPTQWTAFLGLHDQSQRSAPGVQERRLKRIISHPFFNDFTMDYDIALLELEKPAEYSSMVRPISLPDASHVFPAGKAIWVTGWGHTQYGGTNALILQKGEIRVINQTTCENLLPQPITPRMMCVGFLSGGVDSCSGDSGGPLSSVEADGRIFQAGVVSWGDGCAQRNKPGVYTRLPLFRDWIKENTGV |
| 30.2 |  | MTSP-1 protease domain I41E/F99L/C122S/G151N/Q175G/Q192T (enzyme) VVGGTDADEGEWPWQVSLHALGQGHECGASLISPNWLVSAAHCYIDDRGFRYSDPTQWTAFLGLHDQSQRSAPGVQERRLKRIISHPFFNDFTLDYDIALLELEKPAEYSSMVRPISLPDASHVFPAGKAIWVTGWGHTQYGGTNALILQKGEIRVINQTTCENLLPQGITPRMMCVGFLSGGVDSCTGDSGGPLSSVEADGRIFQAGVVSWGDGCAQRNKPGVYTRLPLFRDWIKENTGV |
| 45 |  | MTSP-1 protease domain I41D/G43A/D96E/F99L/C122S/G151N/Q192T (enzyme) VVGGTDADEGEWPWQVSLHALGQGHDCAASLISPNWLVSAAHCYIDDRGFRYSDPTQWTAFLGLHDQSQRSAPGVQERRLKRIISHPFFNEFTLDYDIALLELEKPAEYSSMVRPISLPDASHVFPAGKAIWVTGWGHTQYGGTNALILQKGEIRVINQTTCENLLPQQITPRMMCVGFLSGGVDSCTGDSGGPLSSVEADGRIFQAGVVSWGDGCAQRNKPGVYTRLPLFRDWIKENTGV |
| 64.3 |  | MTSP-1 protease domain I41S/F99L/C122S/Q175P/Q192V (enzyme) VVGGTDADEGEWPWQVSLHALGQGHSCGASLISPNWLVSAAHCYIDDRGFRYSDPTQWTAFLGLHDQSQRSAPGVQERRLKRIISHPFFNDFTLDYDIALLELEKPAEYSSMVRPISLPDASHVFPAGKAIWVTGWGHTQYGGTGALILQKGEIRVINQTTCENLLPQPITPRMMCVGFLSGGVDSCVGDSGGPLSSVEADGRIFQAGVVSWGDGCAQRNKPGVYTRLPLFRDWIKENTGV |
| 74.5 |  | MTSP-1 protease domain I41G/F99L/C122S/G151N/Q175R/Q192A (enzyme) VVGGTDADEGEWPWQVSLHALGQGHGCGASLISPNWLVSAAHCYIDDRGFRYSDPTQWTAFLGLHDQSQRSAPGVQERRLKRIISHPFFNDFTLDYDIALLELEKPAEYSSMVRPISLPDASHVFPAGKAIWVTGWGHTQYGGTNALILQKGEIRVINQTTCENLLPQRITPRMMCVGFLSGGVDSCAGDSGGPLSSVEADGRIFQAGVVSWGDGCAQRNKPGVYTRLPLFRDWIKENTGV |
| 155 |  | MTSP-1 protease domain I41E/F99L/C122S/G151N/Q175R/Q192T (enzyme) VVGGTDADEGEWPWQVSLHALGQGHECGASLISPNWLVSAAHCYIDDRGFRYSDPTQWTAFLGLHDQSQRSAPGVQERRLKRIISHPFFNDFTLDYDIALLELEKPAEYSSMVRPISLPDASHVFPAGKAIWVTGWGHTQYGGTNALILQKGEIRVINQTTCENLLPQRITPRMMCVGFLSGGVDSCTGDSGGPLSSVEADGRIFQAGVVSWGDGCAQRNKPGVYTRLPLFRDWIKENTGV |
| 37.6 |  | MTSP-1 protease domain I41D/G43A/F99L/C122S/G151N/Q192T/P232S/K239R (enzyme) VVGGTDADEGEWPWQVSLHALGQGHDCAASLISPNWLVSAAHCYIDDRGFRYSDPTQWTAFLGLHDQSQRSAPGVQERRLKRIISHPFFNDFTLDYDIALLELEKPAEYSSMVRPISLPDASHVFPAGKAIWVTGWGHTQYGGTNALILQKGEIRVINQTTCENLLPQQITPRMMCVGFLSGGVDSCTGDSGGPLSSVEADGRIFQAGVVSWGDGCAQRNKPGVYTRLSLFRDWIRENTGV |
| 78.8 |  | MTSP-1 protease domain I41D/D96E/C122S/G151N/Q192T (enzyme) VVGGTDADEGEWPWQVSLHALGQGHDCGASLISPNWLVSAAHCYIDDRGFRYSDPTQWTAFLGLHDQSQRSAPGVQERRLKRIISHPFFNEFTFDYDIALLELEKPAEYSSMVRPISLPDASHVFPAGKAIWVTGWGHTQYGGTNALILQKGEIRVINQTTCENLLPQQITPRMMCVGFLSGGVDSCTGDSGGPLSSVEADGRIFQAGVVSWGDGCAQRNKPGVYTRLPLFRDWIKENTGV |
| 51.5 |  | MTSP-1 protease domain I41D/D96E/F99L/C122S/G151N/Q192T (enzyme) VVGGTDADEGEWPWQVSLHALGQGHDCGASLISPNWLVSAAHCYIDDRGFRYSDPTQWTAFLGLHDQSQRSAPGVQERRLKRIISHPFFNEFTLDYDIALLELEKPAEYSSMVRPISLPDASHVFPAGKAIWVTGWGHTQYGGTNALILQKGEIRVINQTTCENLLPQQITPRMMCVGFLSGGVDSCTGDSGGPLSSVEADGRIFQAGVVSWGDGCAQRNKPGVYTRLPLFRDWIKENTGV |
| 35.8 |  | MTSP-1 protease domain I41S/F99L/C122S/G151N/Q175P/Q192V (enzyme) VVGGTDADEGEWPWQVSLHALGQGHSCGASLISPNWLVSAAHCYIDDRGFRYSDPTQWTAFLGLHDQSQRSAPGVQERRLKRIISHPFFNDFTLDYDIALLELEKPAEYSSMVRPISLPDASHVFPAGKAIWVTGWGHTQYGGTNALILQKGEIRVINQTTCENLLPQPITPRMMCVGFLSGGVDSCVGDSGGPLSSVEADGRIFQAGVVSWGDGCAQRNKPGVYTRLPLFRDWIKENTGV |
| 96.8 |  | MTSP-1 protease domain I41S/C122S/G151N/Q175D/Q192R (enzyme) VVGGTDADEGEWPWQVSLHALGQGHSCGASLISPNWLVSAAHCYIDDRGFRYSDPTQWTAFLGLHDQSQRSAPGVQERRLKRIISHPFFNDFTFDYDIALLELEKPAEYSSMVRPISLPDASHVFPAGKAIWVTGWGHTQYGGTNALILQKGEIRVINQTTCENLLPQDITPRMMCVGFLSGGVDSCRGDSGGPLSSVEADGRIFQAGVVSWGDGCAQRNKPGVYTRLPLFRDWIKENTGV |
| 16.9 |  | MTSP-1 protease domain I41D/F99L/C122S/G151N (enzyme) VVGGTDADEGEWPWQVSLHALGQGHDCGASLISPNWLVSAAHCYIDDRGFRYSDPTQWTAFLGLHDQSQRSAPGVQERRLKRIISHPFFNDFTLDYDIALLELEKPAEYSSMVRPISLPDASHVFPAGKAIWVTGWGHTQYGGTNALILQKGEIRVINQTTCENLLPQQITPRMMCVGFLSGGVDSCQGDSGGPLSSVEADGRIFQAGVVSWGDGCAQRNKPGVYTRLPLFRDWIKENTGV |
| 27.6 |  | MTSP-1 protease domain I41D/D96E/F99L/C122S/G151N/Q192T/D217E (enzyme) VVGGTDADEGEWPWQVSLHALGQGHDCGASLISPNWLVSAAHCYIDDRGFRYSDPTQWTAFLGLHDQSQRSAPGVQERRLKRIISHPFFNEFTLDYDIALLELEKPAEYSSMVRPISLPDASHVFPAGKAIWVTGWGHTQYGGTNALILQKGEIRVINQTTCENLLPQQITPRMMCVGFLSGGVDSCTGDSGGPLSSVEADGRIFQAGVVSWGEGCAQRNKPGVYTRLPLFRDWIKENTGV |
|  | 17.1 | MTSP-1 I41S/D60bT/F60eS/Y60gW/D96K/F97G/ins97aV/T98P/F99L/C122S/G151H/Q175L/Q192D (enzyme) VVGGTDADEGEWPWQVSLHALGQGHSCGASLISPNWLVSAAHCYIDTRGSRWSDPTQWTAFLGLHDQSQRSAPGVQERRLKRIISHPFFNKGVPLDYDIALLELEKPAEYSSMVRPISLPDASHVFPAGKAIWVTGWGHTQYGGTHALILQKGEIRVINQTTCENLLPQLITPRMMCVGFLSGGVDSCDGDSGGPLSSVEADGRIFQAGVVSWGDGCAQRNKPGVYTRLPLFRDWIKENTGV |
